From article doi:10.1101/2019.12.17.878660 (bioRxiv, 2019)

Biological target: T1, SurA (E. coli, UniProt P0ABZ6 21-428)
T1 sequence: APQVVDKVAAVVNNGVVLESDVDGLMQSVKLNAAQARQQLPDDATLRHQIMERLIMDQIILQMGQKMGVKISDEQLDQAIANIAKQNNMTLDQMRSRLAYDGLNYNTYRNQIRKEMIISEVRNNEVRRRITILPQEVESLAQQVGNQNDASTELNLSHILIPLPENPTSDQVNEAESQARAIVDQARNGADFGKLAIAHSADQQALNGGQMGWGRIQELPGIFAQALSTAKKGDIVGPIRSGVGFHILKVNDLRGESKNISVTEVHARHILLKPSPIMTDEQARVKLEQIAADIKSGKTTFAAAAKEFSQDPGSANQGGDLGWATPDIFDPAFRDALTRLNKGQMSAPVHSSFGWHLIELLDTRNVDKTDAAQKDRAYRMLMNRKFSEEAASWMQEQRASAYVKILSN
Assay: cross-linking

- binding result: binds
B1: uOmpX (natural protein, E. coli, UniProt P0A917 24-171, looked up)
chain: ATSTVTGGYAQSDAQGQMNKMGGFNLKYRYEEDNSPLGVIGSFTYTEKSRTASSGDYNKNQYYGITAGPAYRINDWASIYGVVGVGYGKFQTTEYPTYKHDTSDYGFSYGAGLQFNPMENVALDFSYEQSRIRSVDVGTWIAGVGYRF
